Test results from the supplement of paper PMC9112550, “Optimization of the antimicrobial peptide Bac7 by deep mutational scanning” (BMC Biology, 2022).

Each sequence was assayed on Escherichia coli TOP10 (assay: shrunken log2 fold change of peptide-encoding DNA abundance (4.5 h post-induction vs induction); higher = less antimicrobial activity (less host growth inhibition)). Conditions: time post-induction: 4.5 h; library: site-saturation at positions 5, 18, 19, 20.
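Further: peptides expressed intracellularly from a pBAD plasmid library in pooled LB shake-flask culture, induced with 0.3% L-arabinose, DNA abundance read by NGS, three biological replicates, DESeq2 with apeglm shrinkage.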

Which “shrunken log2 fold change” value does the source give for RRIRVRPPRLPRPRPRPRLSPRP here?
The value was 0.0321.

For RRIRHRPPRLPRPRPRPWADPRP, which “shrunken log2 fold change” value is on record?
The value was -0.36.

With RRIRARPPRLPRPRPRPHEPPRP as the sequence, how does the “shrunken log2 fold change” value read?
Its value is 0.00298.

Which “shrunken log2 fold change” value does the source give for RRIRFRPPRLPRPRPRPHYKPRP here?
Its value is -0.408.

Which “shrunken log2 fold change” value does the source give for RRIRIRPPRLPRPRPRPWMGPRP here?
Its value is -0.185.

With RRIRVRPPRLPRPRPRPDCIPRP as the sequence, how does the “shrunken log2 fold change” value read?
The value was -0.161.

How did the “shrunken log2 fold change” value turn out when RRIRVRPPRLPRPRPRPAWNPRP was run?
Its value is 0.219.

For RRIRGRPPRLPRPRPRPITSPRP, which “shrunken log2 fold change” value is on record?
The value was 0.0724.

RRIRMRPPRLPRPRPRPYLLPRP was tested. Which “shrunken log2 fold change” value did it give?
The value was -0.204.

How did the “shrunken log2 fold change” value turn out when RRIRRRPPRLPRPRPRPVWRPRP was run?
Its value is 0.436.

How did the “shrunken log2 fold change” value turn out when RRIRGRPPRLPRPRPRPKKAPRP was run?
Its value is -0.0191.

How did the “shrunken log2 fold change” value turn out when RRIRDRPPRLPRPRPRPCGRPRP was run?
Its value is 0.147.

How did the “shrunken log2 fold change” value turn out when RRIRKRPPRLPRPRPRPNMQPRP was run?
The value was 0.26.

RRIRNRPPRLPRPRPRPSTMPRP was tested. Which “shrunken log2 fold change” value did it give?
Its value is -1.15.

For RRIRIRPPRLPRPRPRPAGAPRP, which “shrunken log2 fold change” value is on record?
The value was 0.359.

RRIRDRPPRLPRPRPRPTRRPRP was tested. Which “shrunken log2 fold change” value did it give?
The value was 0.206.

With RRIRGRPPRLPRPRPRPIYHPRP as the sequence, how does the “shrunken log2 fold change” value read?
The value was -0.1.

Which “shrunken log2 fold change” value does the source give for RRIRNRPPRLPRPRPRPDIVPRP here?
The value was -0.0101.

How did the “shrunken log2 fold change” value turn out when RRIRMRPPRLPRPRPRPTHCPRP was run?
Its value is 0.34.

Which “shrunken log2 fold change” value does the source give for RRIRPRPPRLPRPRPRPSHYPRP here?
Its value is -0.479.

How did the “shrunken log2 fold change” value turn out when RRIRARPPRLPRPRPRPTKMPRP was run?
The value was 0.319.

How did the “shrunken log2 fold change” value turn out when RRIRERPPRLPRPRPRPHESPRP was run?
Its value is 0.0153.

Which “shrunken log2 fold change” value does the source give for RRIRPRPPRLPRPRPRPGQHPRP here?
Its value is 0.0653.

With RRIRSRPPRLPRPRPRPPEYPRP as the sequence, how does the “shrunken log2 fold change” value read?
The value was -0.154.

For RRIRGRPPRLPRPRPRPGFLPRP, which “shrunken log2 fold change” value is on record?
The value was 0.41.

RRIRLRPPRLPRPRPRPWWRPRP was tested. Which “shrunken log2 fold change” value did it give?
The value was 0.197.

With RRIRPRPPRLPRPRPRPKRSPRP as the sequence, how does the “shrunken log2 fold change” value read?
The value was 0.0941.

With RRIRGRPPRLPRPRPRPMDVPRP as the sequence, how does the “shrunken log2 fold change” value read?
The value was 0.265.

RRIRLRPPRLPRPRPRPNACPRP was tested. Which “shrunken log2 fold change” value did it give?
The value was 0.127.

With RRIRLRPPRLPRPRPRPSHQPRP as the sequence, how does the “shrunken log2 fold change” value read?
Its value is -0.231.

With RRIRSRPPRLPRPRPRPSYMPRP as the sequence, how does the “shrunken log2 fold change” value read?
The value was -1.1.

Which “shrunken log2 fold change” value does the source give for RRIRGRPPRLPRPRPRPLDWPRP here?
The value was 1.07.

For RRIRPRPPRLPRPRPRPFMQPRP, which “shrunken log2 fold change” value is on record?
Its value is -0.396.

Which “shrunken log2 fold change” value does the source give for RRIRWRPPRLPRPRPRPFWIPRP here?
The value was 0.0876.

For RRIRPRPPRLPRPRPRPDPGPRP, which “shrunken log2 fold change” value is on record?
Its value is 0.0845.

For RRIRSRPPRLPRPRPRPHHGPRP, which “shrunken log2 fold change” value is on record?
The value was -0.0421.

How did the “shrunken log2 fold change” value turn out when RRIRYRPPRLPRPRPRPPLCPRP was run?
The value was -0.173.

For RRIRYRPPRLPRPRPRPKMYPRP, which “shrunken log2 fold change” value is on record?
The value was -1.46.

For RRIRTRPPRLPRPRPRPNTSPRP, which “shrunken log2 fold change” value is on record?
Its value is -0.43.

With RRIRPRPPRLPRPRPRPRWSPRP as the sequence, how does the “shrunken log2 fold change” value read?
The value was 0.108.

With RRIRERPPRLPRPRPRPGAYPRP as the sequence, how does the “shrunken log2 fold change” value read?
The value was -0.243.

For RRIRYRPPRLPRPRPRPGHGPRP, which “shrunken log2 fold change” value is on record?
Its value is -0.111.

RRIRKRPPRLPRPRPRPVNEPRP was tested. Which “shrunken log2 fold change” value did it give?
Its value is -0.00608.

For RRIRARPPRLPRPRPRPTTFPRP, which “shrunken log2 fold change” value is on record?
The value was 0.177.

With RRIRSRPPRLPRPRPRPSQHPRP as the sequence, how does the “shrunken log2 fold change” value read?
Its value is -0.24.

With RRIRHRPPRLPRPRPRPDGTPRP as the sequence, how does the “shrunken log2 fold change” value read?
The value was -0.0362.

With RRIRFRPPRLPRPRPRPMVNPRP as the sequence, how does the “shrunken log2 fold change” value read?
Its value is -0.171.

Which “shrunken log2 fold change” value does the source give for RRIRARPPRLPRPRPRPKMCPRP here?
The value was -0.0542.

How did the “shrunken log2 fold change” value turn out when RRIRTRPPRLPRPRPRPNTYPRP was run?
Its value is -0.614.

For RRIRCRPPRLPRPRPRPGMQPRP, which “shrunken log2 fold change” value is on record?
The value was -0.255.

How did the “shrunken log2 fold change” value turn out when RRIRLRPPRLPRPRPRPQYPPRP was run?
Its value is -0.765.

RRIRIRPPRLPRPRPRPKLWPRP was tested. Which “shrunken log2 fold change” value did it give?
The value was -0.182.

RRIRERPPRLPRPRPRPRTCPRP was tested. Which “shrunken log2 fold change” value did it give?
The value was -0.0174.

Which “shrunken log2 fold change” value does the source give for RRIRCRPPRLPRPRPRPPMIPRP here?
The value was -0.0902.

For RRIRCRPPRLPRPRPRPTDFPRP, which “shrunken log2 fold change” value is on record?
Its value is -0.759.

RRIRPRPPRLPRPRPRPVSHPRP was tested. Which “shrunken log2 fold change” value did it give?
The value was 0.208.

For RRIRQRPPRLPRPRPRPYNKPRP, which “shrunken log2 fold change” value is on record?
Its value is -0.403.

With RRIRHRPPRLPRPRPRPQSVPRP as the sequence, how does the “shrunken log2 fold change” value read?
Its value is -0.267.

For RRIRPRPPRLPRPRPRPRVCPRP, which “shrunken log2 fold change” value is on record?
The value was 0.298.

For RRIRYRPPRLPRPRPRPGFAPRP, which “shrunken log2 fold change” value is on record?
Its value is -0.00507.

Which “shrunken log2 fold change” value does the source give for RRIRARPPRLPRPRPRPLECPRP here?
The value was 0.184.

With RRIRHRPPRLPRPRPRPTMEPRP as the sequence, how does the “shrunken log2 fold change” value read?
The value was -0.0987.

For RRIRDRPPRLPRPRPRPMHCPRP, which “shrunken log2 fold change” value is on record?
Its value is -0.00112.

RRIRCRPPRLPRPRPRPILPPRP was tested. Which “shrunken log2 fold change” value did it give?
Its value is -0.287.

Which “shrunken log2 fold change” value does the source give for RRIRRRPPRLPRPRPRPPGYPRP here?
Its value is 1.22.

RRIRQRPPRLPRPRPRPFIFPRP was tested. Which “shrunken log2 fold change” value did it give?
The value was -0.257.

How did the “shrunken log2 fold change” value turn out when RRIRYRPPRLPRPRPRPDATPRP was run?
The value was 0.104.

How did the “shrunken log2 fold change” value turn out when RRIRWRPPRLPRPRPRPRFCPRP was run?
Its value is 0.234.

With RRIRSRPPRLPRPRPRPGEHPRP as the sequence, how does the “shrunken log2 fold change” value read?
Its value is 0.0053.

With RRIRLRPPRLPRPRPRPFSEPRP as the sequence, how does the “shrunken log2 fold change” value read?
Its value is -0.0881.

Which “shrunken log2 fold change” value does the source give for RRIRDRPPRLPRPRPRPEPGPRP here?
Its value is 0.707.

How did the “shrunken log2 fold change” value turn out when RRIRWRPPRLPRPRPRPWYCPRP was run?
Its value is 0.0408.

RRIRTRPPRLPRPRPRPKKLPRP was tested. Which “shrunken log2 fold change” value did it give?
The value was -0.298.

With RRIRYRPPRLPRPRPRPVDAPRP as the sequence, how does the “shrunken log2 fold change” value read?
The value was -0.42.

RRIRPRPPRLPRPRPRPKEQPRP was tested. Which “shrunken log2 fold change” value did it give?
The value was 0.183.

Which “shrunken log2 fold change” value does the source give for RRIRNRPPRLPRPRPRPMDWPRP here?
Its value is -0.0484.

Which “shrunken log2 fold change” value does the source give for RRIRCRPPRLPRPRPRPHDPPRP here?
Its value is 0.286.

For RRIRTRPPRLPRPRPRPQSSPRP, which “shrunken log2 fold change” value is on record?
The value was -0.08.

For RRIRFRPPRLPRPRPRPPQVPRP, which “shrunken log2 fold change” value is on record?
The value was -0.00567.

For RRIRMRPPRLPRPRPRPVTMPRP, which “shrunken log2 fold change” value is on record?
Its value is 0.116.

With RRIRNRPPRLPRPRPRPWNIPRP as the sequence, how does the “shrunken log2 fold change” value read?
Its value is -0.0117.

How did the “shrunken log2 fold change” value turn out when RRIRWRPPRLPRPRPRPEEDPRP was run?
Its value is 0.00839.

How did the “shrunken log2 fold change” value turn out when RRIRPRPPRLPRPRPRPYHGPRP was run?
The value was 0.0397.

For RRIRRRPPRLPRPRPRPRITPRP, which “shrunken log2 fold change” value is on record?
Its value is 0.186.

How did the “shrunken log2 fold change” value turn out when RRIRYRPPRLPRPRPRPPMEPRP was run?
Its value is 0.0358.

RRIRERPPRLPRPRPRPMDHPRP was tested. Which “shrunken log2 fold change” value did it give?
The value was -0.0102.

Which “shrunken log2 fold change” value does the source give for RRIRMRPPRLPRPRPRPFVGPRP here?
Its value is 0.0187.

Which “shrunken log2 fold change” value does the source give for RRIRWRPPRLPRPRPRPLNTPRP here?
The value was 0.0456.

For RRIRWRPPRLPRPRPRPNRDPRP, which “shrunken log2 fold change” value is on record?
The value was -0.00925.

For RRIRPRPPRLPRPRPRPFKSPRP, which “shrunken log2 fold change” value is on record?
The value was -0.222.

RRIRIRPPRLPRPRPRPLYWPRP was tested. Which “shrunken log2 fold change” value did it give?
The value was -0.456.

For RRIRPRPPRLPRPRPRPVLPPRP, which “shrunken log2 fold change” value is on record?
The value was 0.11.

RRIRIRPPRLPRPRPRPNKLPRP was tested. Which “shrunken log2 fold change” value did it give?
The value was -0.499.

RRIRCRPPRLPRPRPRPRRKPRP was tested. Which “shrunken log2 fold change” value did it give?
The value was 0.399.

For RRIRQRPPRLPRPRPRPECNPRP, which “shrunken log2 fold change” value is on record?
Its value is 0.062.

RRIRMRPPRLPRPRPRPWMFPRP was tested. Which “shrunken log2 fold change” value did it give?
The value was 0.00324.

Which “shrunken log2 fold change” value does the source give for RRIRSRPPRLPRPRPRPQAGPRP here?
The value was 0.165.

RRIRRRPPRLPRPRPRPDEGPRP was tested. Which “shrunken log2 fold change” value did it give?
The value was -0.00319.

For RRIRYRPPRLPRPRPRPHPHPRP, which “shrunken log2 fold change” value is on record?
Its value is -0.744.

Which “shrunken log2 fold change” value does the source give for RRIRVRPPRLPRPRPRPFAFPRP here?
The value was -0.38.

With RRIRCRPPRLPRPRPRPCYNPRP as the sequence, how does the “shrunken log2 fold change” value read?
The value was -0.837.

RRIRTRPPRLPRPRPRPVFKPRP was tested. Which “shrunken log2 fold change” value did it give?
The value was 0.0882.

Which “shrunken log2 fold change” value does the source give for RRIRGRPPRLPRPRPRPKPYPRP here?
The value was 0.332.

With RRIRPRPPRLPRPRPRPGHGPRP as the sequence, how does the “shrunken log2 fold change” value read?
Its value is 0.296.

How did the “shrunken log2 fold change” value turn out when RRIRKRPPRLPRPRPRPELEPRP was run?
Its value is 0.0875.

With RRIRPRPPRLPRPRPRPVMPPRP as the sequence, how does the “shrunken log2 fold change” value read?
The value was 0.188.

With RRIRHRPPRLPRPRPRPMPGPRP as the sequence, how does the “shrunken log2 fold change” value read?
Its value is -0.0235.

RRIRDRPPRLPRPRPRPCTWPRP was tested. Which “shrunken log2 fold change” value did it give?
Its value is 0.0101.

With RRIRERPPRLPRPRPRPKKDPRP as the sequence, how does the “shrunken log2 fold change” value read?
The value was -0.346.
